{
  "source": "paper PMC10564622",
  "about": "(Free Radical Biology & Medicine, 2023)",
  "binders": {"B1": {"name": "KLHL11 BTB-BACK (residues 67-340), unlabeled (domain or fragment, human, UniProt Q9NVR0 67-340, looked up)", "chain": "EAEDFECSSHCSELSWRQNEQRRQGLFCDITLCFGGAGGREFRAHRSVLAAATEYFTPLLSGQFSESRSGRVEMRKWSSEPGPEPDTVEAVIEYMYTGRIRVSTGSVHEVLELADRFLLIRLKEFCGEFLKKKLHLSNCVAIHSLAHMYTLSQLALKAADMIRRNFHKVIQDEEFYTLPFHLIRDWLSDLEITVDSEEVLFETVLKWVQRNAEERERYFEELFKLLRLSQMKPTYLTRHVKPERLVANNEVCVKLVADAVERHALRAENIQSGT", "notes": "human KLHL11 BTB and BACK domains, residues 67-340, in vector pNIC28-Bsa4; source: E. coli BL21(DE3)-pRARE2, purified (nickel sepharose, TEV cleavage, SEC); not shown: His6, N-terminal, cleaved"}, "B2": {"name": "Biotinylated KEAP1 BTB-3-box (residues 48-213) (domain or fragment, human, UniProt Q14145 48-213, looked up)", "chain": "GNRTFSYTLEDHTKQAFGIMNELRLSQQLCDVTLQVKYQDAPAAQFMAHKVVLASSSPVFKAMFTNGLREQGMEVVSIEGIHPKVMERLIEFAYTASISMGEKCVLHVMNGAVMYQIDSVVRACSDFLVQQLDPSNAIGIANFAEQIGCVELHQRAREYIYMHFGE", "modifications": "biotin on the avi tag"}, "B3": {"name": "CoraFluor-1-labeled KLHL11 BTB-BACK (domain or fragment, human, UniProt Q9NVR0 67-340, looked up)", "chain": "EAEDFECSSHCSELSWRQNEQRRQGLFCDITLCFGGAGGREFRAHRSVLAAATEYFTPLLSGQFSESRSGRVEMRKWSSEPGPEPDTVEAVIEYMYTGRIRVSTGSVHEVLELADRFLLIRLKEFCGEFLKKKLHLSNCVAIHSLAHMYTLSQLALKAADMIRRNFHKVIQDEEFYTLPFHLIRDWLSDLEITVDSEEVLFETVLKWVQRNAEERERYFEELFKLLRLSQMKPTYLTRHVKPERLVANNEVCVKLVADAVERHALRAENIQSGT", "modifications": "CoraFluor-1 by direct acylation with CoraFluor-1-Pfp (sites not given)", "notes": "human KLHL11 BTB and BACK domains, residues 67-340, in vector pNIC28-Bsa4; TR-FRET donor protein; source: E. coli BL21(DE3)-pRARE2, purified (nickel sepharose, TEV cleavage, SEC), labeled with CoraFluor-1-Pfp; not shown: His6, N-terminal, cleaved"}, "B4": {"name": "CoraFluor-1-labeled KLHL11_(BTB-BACK) (domain or fragment, human, UniProt Q9NVR0 67-340, looked up)", "chain": "EAEDFECSSHCSELSWRQNEQRRQGLFCDITLCFGGAGGREFRAHRSVLAAATEYFTPLLSGQFSESRSGRVEMRKWSSEPGPEPDTVEAVIEYMYTGRIRVSTGSVHEVLELADRFLLIRLKEFCGEFLKKKLHLSNCVAIHSLAHMYTLSQLALKAADMIRRNFHKVIQDEEFYTLPFHLIRDWLSDLEITVDSEEVLFETVLKWVQRNAEERERYFEELFKLLRLSQMKPTYLTRHVKPERLVANNEVCVKLVADAVERHALRAENIQSGT", "modifications": "CoraFluor-1 by direct acylation with CoraFluor-1-Pfp (sites not given)", "notes": "human KLHL11, Uniprot Q9NVR0, residues 67–340, vector pNIC28-Bsa4; source: E. coli BL21(DE3)-pRARE2, purified (nickel sepharose, TEV cleavage, SEC), labeled with CoraFluor-1-Pfp; not shown: His6, N-terminal, cleaved"}, "B5": {"name": "CUL3_(NTDΔ22) (CUL3 residues 23–388, I342R L346D) (domain or fragment, human, UniProt Q13618 23-388, looked up)", "chain": "MTMDEKYVNSIWDLLKNAIQEIQRKNNSGLSFEELYRNAYTMVLHKHGEKLYTGLREVVTEHLINKVREDVLNSLNNNFLQTLNQAWNDHQTAMVMIRDILMYMDRVYVQQNNVENVYNLGLIIFRDQVVRYGCIRDHLRQTLLDMIARERKGEVVDRGAIRNACQMLMILGLEGRSVYEEDFEAPFLEMSAEFFQMESQKFLAENSASVYIKKVEARINEEIERVMHCLDKSTEEPIVKVVERELISKHMKTIVEMENSGLVHMLKNGKTEDLGCMYKLFSRVPNGLKTMCECMSSYLREQGKALVSEEGEGKNPVDYRQGLDDLKSRFDRFLLESFNNDRLFKQTIAGDFEYFLNLNSRSPEYL", "notes": "human CUL3, Uniprot Q13618, residues 23–388, vector pNIC-CTHF, with stabilising mutations I342R and L346D; also called CUL3_(NTDΔN22); source: E. coli BL21(DE3)-pRARE2, purified (nickel sepharose, TEV cleavage, SEC); not shown: His6, C-terminal, cleaved; FLAG, C-terminal, cleaved"}},
  "conditions_in_all_cases": "both partners purified",
  "key": {"AF488-labeled CUL3NTD [1]": {"target": "T1, AF488-labeled CUL3NTD (human, UniProt Q13618 1-388, I342R | L346D, AF488 by direct acylation with AF488-Tfp (sites not given))", "T1 construct": "human CUL3 N-terminal domain, residues 1-388, in vector pNIC-CTHF, with the stabilising mutations I342R and L346D; Fluorescent tracer of the TR-FRET assays; also called AF488-CUL3NTD; source: E. coli BL21(DE3)-pRARE2, purified (nickel sepharose, TEV cleavage, SEC), labeled with AF488-Tfp; not shown: His6, C-terminal, cleaved; FLAG, C-terminal, cleaved", "experiment": "FRET or BRET; TR-FRET protein displacement assay: CoraFluor-1-labeled KLHL11 (3 nM at 1.5x) and AF488-labeled CUL3NTD (45 nM at 1.5x); unlabeled protein titrated 1:3, 12 points, cmax 25 uM; 2 h at room temperature; 25 mM HEPES, 150 mM NaCl, 1 mM DTT, 0.5 mg/mL BSA, 0.005% TWEEN-20, pH 7.5; KD from IC50 by Cheng-Prusoff"}, "[2]": {"target": "T2, full length CUL3-RBX1 complex (human | , UniProt Q13618 1-768; P62877 1-108)", "T2 sequence (Q13618 whole entry, chain 1 of 2)": "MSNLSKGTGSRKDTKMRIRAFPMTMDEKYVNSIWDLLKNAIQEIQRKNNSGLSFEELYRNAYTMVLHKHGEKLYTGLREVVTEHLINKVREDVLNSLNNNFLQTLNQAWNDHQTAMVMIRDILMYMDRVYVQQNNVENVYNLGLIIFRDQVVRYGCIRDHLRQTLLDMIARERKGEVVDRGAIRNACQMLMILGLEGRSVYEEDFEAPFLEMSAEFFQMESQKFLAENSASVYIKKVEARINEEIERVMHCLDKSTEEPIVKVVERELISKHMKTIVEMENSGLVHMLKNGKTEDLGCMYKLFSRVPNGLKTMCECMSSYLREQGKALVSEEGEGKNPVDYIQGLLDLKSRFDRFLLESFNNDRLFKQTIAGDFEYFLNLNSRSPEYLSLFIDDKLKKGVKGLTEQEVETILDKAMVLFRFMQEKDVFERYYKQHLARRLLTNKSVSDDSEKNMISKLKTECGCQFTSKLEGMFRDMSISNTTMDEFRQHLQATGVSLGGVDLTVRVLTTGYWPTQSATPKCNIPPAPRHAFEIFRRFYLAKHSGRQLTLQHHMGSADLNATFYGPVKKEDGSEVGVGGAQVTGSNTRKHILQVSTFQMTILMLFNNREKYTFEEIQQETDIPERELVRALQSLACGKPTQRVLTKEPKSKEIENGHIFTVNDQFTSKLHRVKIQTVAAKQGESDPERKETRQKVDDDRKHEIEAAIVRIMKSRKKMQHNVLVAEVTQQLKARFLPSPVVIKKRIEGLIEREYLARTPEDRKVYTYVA", "T2 sequence (P62877 whole entry, chain 2 of 2)": "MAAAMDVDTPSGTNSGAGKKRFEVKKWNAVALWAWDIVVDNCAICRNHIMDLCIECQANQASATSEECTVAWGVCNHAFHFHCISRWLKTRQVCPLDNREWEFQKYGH", "experiment": "BLI; Octet RED384; biotinylated KEAP1BTB-3-box immobilised on streptavidin tips; analyte in 50 mM HEPES, 300 mM NaCl, 0.5 mM TCEP, 10 mM DTT, 0.01% TWEEN-20; steady-state equilibrium analysis, 1:1 model; apparent"}, "[3]": {"target": "T3, CUL3 N-terminal domain (CUL3NTD, residues 1-388), unlabeled (human, UniProt Q13618 1-388, I342R | L346D)", "T3 construct": "human CUL3 N-terminal domain, residues 1-388, in vector pNIC-CTHF, with the stabilising mutations I342R and L346D; source: E. coli BL21(DE3)-pRARE2, purified (nickel sepharose, TEV cleavage, SEC); not shown: His6, C-terminal, cleaved; FLAG, C-terminal, cleaved", "experiment": "BLI; Octet RED384; biotinylated KEAP1BTB-3-box immobilised on streptavidin tips; analyte in 50 mM HEPES, 300 mM NaCl, 0.5 mM TCEP, 10 mM DTT, 0.01% TWEEN-20; steady-state equilibrium analysis, 1:1 model; apparent"}, "[4]": {"target": "T3, CUL3 N-terminal domain (CUL3NTD, …)", "experiment": "BLI; Octet RED384; biotinylated KEAP1BTB-3-box immobilised on streptavidin tips; analyte in 50 mM HEPES, 300 mM NaCl, 0.5 mM TCEP, 10 mM DTT, 0.01% TWEEN-20; kinetic global fit, 1:1 model; apparent"}, "[5]": {"target": "T3, CUL3 N-terminal domain (CUL3NTD, …)", "experiment": "BLI; Octet RED384; biotinylated KEAP1BTB-3-box immobilised on streptavidin tips; analyte in 50 mM HEPES, 300 mM NaCl, 0.5 mM TCEP, 10 mM DTT, 0.01% TWEEN-20; kinetic global fit, 1:1 model; apparent", "remark": "listed apart in the source"}, "[6]": {"target": "T2, full length CUL3-RBX1 complex", "experiment": "BLI; Octet RED384; biotinylated KEAP1BTB-3-box immobilised on streptavidin tips; analyte in 50 mM HEPES, 300 mM NaCl, 0.5 mM TCEP, 10 mM DTT, 0.01% TWEEN-20; kinetic global fit, 1:1 model; apparent"}, "[7]": {"target": "T3, CUL3 N-terminal domain (CUL3NTD, …)", "experiment": "FRET or BRET; TR-FRET protein displacement assay: CoraFluor-1-labeled KLHL11 (3 nM at 1.5x) and AF488-labeled CUL3NTD (45 nM at 1.5x); unlabeled protein titrated 1:3, 12 points, cmax 25 uM; 2 h at room temperature; 25 mM HEPES, 150 mM NaCl, 1 mM DTT, 0.5 mg/mL BSA, 0.005% TWEEN-20, pH 7.5; KD from IC50 by Cheng-Prusoff"}, "AF488-labeled CUL3NTD [8]": {"target": "T4, AF488-labeled CUL3NTD (human, UniProt Q13618 1-388, I342R | L346D, AF488 by direct acylation with AF488-Tfp (sites not given))", "T4 construct": "human CUL3, Uniprot Q13618, residues 1–388, vector pNIC-CTHF, with stabilising mutations I342R and L346D; also called AF488-CUL3NTD; source: E. coli BL21(DE3)-pRARE2, purified (nickel sepharose, TEV cleavage, SEC), labeled with AF488-Tfp; not shown: His6, C-terminal, cleaved; FLAG, C-terminal, cleaved", "experiment": "FRET or BRET; TR-FRET dissociation: pre-equilibrated 20 nM CoraFluor-1-KEAP1 + 300 nM AF488-CUL3NTD, or 2 nM CoraFluor-1-KLHL11 + 45 nM AF488-CUL3NTD; 25 μM unlabeled KLHL11 added, read for 30 min; one-phase decay"}, "AF488-labeled CUL3NTD [9]": {"target": "T4, AF488-labeled CUL3NTD", "experiment": "FRET or BRET; TR-FRET saturation binding: AF488-labeled CUL3NTD titrated (cmax 1000 nM) onto CoraFluor-1-labeled KEAP1 or KLHL11; 25 mM HEPES, 150 mM NaCl, 1 mM DTT, 0.5 mg/mL BSA, 0.005% TWEEN-20, pH 7.5; 2 h, room temperature; One Site – Total Binding model"}, "[10]": {"target": "B5", "experiment": "FRET or BRET; TR-FRET protein displacement assay: CoraFluor-1-labeled KLHL11_(BTB-BACK) + AF488-labeled CUL3NTD, unlabeled protein titrated (cmax 25 μM); assay buffer pH 7.5, 2 h, room temperature; KD from IC50 by Cheng-Prusoff"}, "[11]": {"target": "CoraFluor-1-labeled KEAP1FL (full-length, untagged KEAP1, residues 1–624) (human, UniProt Q14145 1-624, CoraFluor-1 by direct acylation with CoraFluor-1-Pfp (sites not given))", "sequence (Q14145 whole entry, the tested form may be a part)": "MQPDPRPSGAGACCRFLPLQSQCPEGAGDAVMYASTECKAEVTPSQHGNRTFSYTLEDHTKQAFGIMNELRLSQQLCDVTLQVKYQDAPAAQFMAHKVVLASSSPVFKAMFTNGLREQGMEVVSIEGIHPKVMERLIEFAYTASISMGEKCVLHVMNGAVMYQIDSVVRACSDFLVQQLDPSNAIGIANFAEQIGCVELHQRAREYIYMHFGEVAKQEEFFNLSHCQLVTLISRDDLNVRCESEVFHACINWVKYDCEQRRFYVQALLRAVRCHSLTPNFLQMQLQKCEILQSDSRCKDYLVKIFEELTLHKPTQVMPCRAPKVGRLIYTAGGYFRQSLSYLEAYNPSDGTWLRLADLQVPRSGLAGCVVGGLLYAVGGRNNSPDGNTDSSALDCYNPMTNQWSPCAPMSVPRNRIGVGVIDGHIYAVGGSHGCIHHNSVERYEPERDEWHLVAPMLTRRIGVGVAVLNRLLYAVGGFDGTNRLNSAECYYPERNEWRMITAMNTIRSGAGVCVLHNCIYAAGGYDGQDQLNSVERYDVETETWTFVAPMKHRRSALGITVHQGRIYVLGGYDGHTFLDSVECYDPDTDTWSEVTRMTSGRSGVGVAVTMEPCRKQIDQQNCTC", "experiment": "FRET or BRET; TR-FRET protein displacement assay: CoraFluor-1-labeled KEAP1FL + AF488-labeled CUL3NTD, unlabeled protein titrated (cmax 25 μM); assay buffer pH 7.5, 2 h, room temperature; KD from IC50 by Cheng-Prusoff"}, "[12]": {"target": "B4", "experiment": "FRET or BRET; TR-FRET protein displacement assay: CoraFluor-1-labeled KLHL11_(BTB-BACK) + AF488-labeled CUL3NTD, unlabeled protein titrated (cmax 25 μM); assay buffer pH 7.5, 2 h, room temperature; KD from IC50 by Cheng-Prusoff"}},
  "data": [
    {"binder": "B1", "values": [
      {"measurement": "Kd", "setting": "AF488-labeled CUL3NTD [1]", "result": 14, "unit": "nM"}
    ]},
    {"binder": "B2", "values": [
      {"measurement": "Kd", "setting": "[2]", "result": 4.4, "unit": "µM"},
      {"measurement": "Kd", "setting": "[3]", "result": 2900, "unit": "nM"},
      {"measurement": "koff", "setting": "[4]", "result": 0.189, "unit": "s⁻¹"},
      {"measurement": "kon", "setting": "[4]", "result": 36600, "unit": "M⁻¹ s⁻¹"},
      {"measurement": "Kd", "setting": "[5]", "result": 5.2, "unit": "µM"},
      {"measurement": "Kd", "setting": "[6]", "result": 5.6, "unit": "µM"},
      {"measurement": "koff", "setting": "[6]", "result": 0.187, "unit": "s⁻¹"},
      {"measurement": "kon", "setting": "[6]", "result": 33200, "unit": "M⁻¹ s⁻¹"}
    ]},
    {"binder": "B3", "values": [
      {"measurement": "Kd", "setting": "[7]", "result": 8, "unit": "nM"}
    ]},
    {"binder": "B4", "values": [
      {"measurement": "koff", "setting": "AF488-labeled CUL3NTD [8]", "result": 0.00381, "unit": "s⁻¹"},
      {"measurement": "Kd", "setting": "AF488-labeled CUL3NTD [9]", "result": 20, "unit": "nM"},
      {"measurement": "Kd", "setting": "[10]", "result": 1840, "unit": "nM"}
    ]},
    {"binder": "B5", "values": [
      {"measurement": "Kd", "setting": "[11]", "result": 13.8, "unit": "µM"},
      {"measurement": "fold decrease of affinity against CUL3NTD", "setting": "[12]", "result": "> 200", "unit": "fold"}
    ]}
  ]
}
